In the supplement of paper PMC10567573:

B1: MTMR15 (parent)
chain: FSPDFTLRNTLKSTSEDSLVKQEC
B2: RPS21 (parent)
chain: AEVSWEPGRREGCDICAGKAGCPI

Variants of: B1
Assay: protein stability index of a GFP-peptide fusion (GPS, HEK-293T) (PSI 1-6); higher = more stable
Conditions: c terminus: a fixed tail appended
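Further: lentivirally expressed fusions sorted by FACS into six bins by GFP to DsRed ratio, PSI derived from sequencing read proportions per bin multiplied by bin number.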

Variant	protein stability index
FSPDFTLRNTLKSTSEGSLVKQEC [D17G]	2.03
FSPDFTLRNTLKSTSEESLVKQEC [D17E]	2.12
FSPDFTLRNTLKSTSELSLVKQEC [D17L]	2.36
FSPDFTLRNTLKSTSEKSLVKQEC [D17K]	1.69
FSPDFTLRNTLKSTSENSLVKQEC [D17N]	1.8
FSPDFTLRNTLKSTSEQSLVKQEC [D17Q]	2.37
FSPDFTLRNTLKSTSETSLVKQEC [D17T]	2.22
FSPDFTLRNTLKSTSEHSLVKQEC [D17H]	2.34
FSPDFTLRNTLKSTSEMSLVKQEC [D17M]	2.07
FSPDFTLRNTLKSTSECSLVKQEC [D17C]	1.47
FSPDFTLRNTLKSTSESSLVKQEC [D17S]	1.45
FSPDFTLRNTLKSTSEISLVKQEC [D17I]	2.58
FSPDFTLRNTLKSTSEVSLVKQEC [D17V]	2.06
FSPDFTLRNTLKSTSEWSLVKQEC [D17W]	2.6
FSPDFTLRNTLKSTSEYSLVKQEC [D17Y]	2.11
FSPDFTLRNTLKSTSEPSLVKQEC [D17P]	2.08
FSPDFTLRNTLKSTSERSLVKQEC [D17R]	1.61
FSPDFTLRNTLKSTSEFSLVKQEC [D17F]	2.8
FSPDFTLRNTLKSTSEDSLQKQEC [V20Q]	2.06
FSPDFTLRNTLKSTSEDSLRKQEC [V20R]	2.21
FSPDFTLRNTLKSTSEDSLIKQEC [V20I]	2.19
FSPDFTLRNTLKSTSEDSLTKQEC [V20T]	2.01
FSPDFTLRNTLKSTSEDSLGKQEC [V20G]	1.78
FSPDFTLRNTLKSTSEDSLCKQEC [V20C]	1.74
FSPDFTLRNTLKSTSEDSLYKQEC [V20Y]	2
FSPDFTLRNTLKSTSEDSLMKQEC [V20M]	2.29

Variant	protein stability index
FSPDFTLRNTLKSTSEDSLNKQEC [V20N]	2.2
FSPDFTLRNTLKSTSEDSLFKQEC [V20F]	3.85
FSPDFTLRNTLKSTSEDSLWKQEC [V20W]	2.12
FSPDFTLRNTLKSTSEDSLPKQEC [V20P]	2.44
FSPDFTLRNTLKSTSEDSLLKQEC [V20L]	2.08
FSPDFTLRNTLKSTSEDSLKKQEC [V20K]	2.46
FSPDFTLRNTLKSTSEDSLAKQEC [V20A]	2.09
FSPDFTLRNTLKSTSEDSLSKQEC [V20S]	2.04
FSPDFTLRNTLKSTSEDSLEKQEC [V20E]	2.12
FSPDFTLRNTLKSTSEDSLHKQEC [V20H]	2.19
FSPDFTLRNTLKSTSEDSLDKQEC [V20D]	2.08
FSPDFTLRNTLKSTSEDKLVKQEC [S18K]	2.17
FSPDFTLRNTLKSTSEDILVKQEC [S18I]	3.61
FSPDFTLRNTLKSTSEDPLVKQEC [S18P]	2.05
FSPDFTLRNTLKSTSEDGLVKQEC [S18G]	1.76
FSPDFTLRNTLKSTSEDDLVKQEC [S18D]	1.76
FSPDFTLRNTLKSTSEDMLVKQEC [S18M]	2.37
FSPDFTLRNTLKSTSEDLLVKQEC [S18L]	2.48
FSPDFTLRNTLKSTSEDHLVKQEC [S18H]	1.92
FSPDFTLRNTLKSTSEDWLVKQEC [S18W]	1.75
FSPDFTLRNTLKSTSEDYLVKQEC [S18Y]	2.41
FSPDFTLRNTLKSTSEDCLVKQEC [S18C]	1.79
FSPDFTLRNTLKSTSEDALVKQEC [S18A]	1.75
FSPDFTLRNTLKSTSEDELVKQEC [S18E]	2.02
FSPDFTLRNTLKSTSEDNLVKQEC [S18N]	1.57
FSPDFTLRNTLKSTSEDQLVKQEC [S18Q]	2.01

Variant	protein stability index
FSPDFTLRNTLKSTSEDRLVKQEC [S18R]	2.3
FSPDFTLRNTLKSTSEDFLVKQEC [S18F]	1.87
FSPDFTLRNTLKSTSEDVLVKQEC [S18V]	1.84
FSPDFTLRNTLKSTSEDTLVKQEC [S18T]	2.21
FSPDFTLRNTLKSTSEDSLVKREC [Q22R]	1.72
FSPDFTLRNTLKSTSEDSLVKSEC [Q22S]	1.86
FSPDFTLRNTLKSTSEDSLVKMEC [Q22M]	1.65
FSPDFTLRNTLKSTSEDSLVKTEC [Q22T]	2.42
FSPDFTLRNTLKSTSEDSLVKKEC [Q22K]	1.62
FSPDFTLRNTLKSTSEDSLVKPEC [Q22P]	1.67
FSPDFTLRNTLKSTSEDSLVKDEC [Q22D]	1.92
FSPDFTLRNTLKSTSEDSLVKAEC [Q22A]	1.56
FSPDFTLRNTLKSTSEDSLVKNEC [Q22N]	2.02
FSPDFTLRNTLKSTSEDSLVKFEC [Q22F]	2.65
FSPDFTLRNTLKSTSEDSLVKGEC [Q22G]	2.31
FSPDFTLRNTLKSTSEDSLVKYEC [Q22Y]	2.39
FSPDFTLRNTLKSTSEDSLVKVEC [Q22V]	2
FSPDFTLRNTLKSTSEDSLVKWEC [Q22W]	2.08
FSPDFTLRNTLKSTSEDSLVKHEC [Q22H]	1.91
FSPDFTLRNTLKSTSEDSLVKEEC [Q22E]	2.15
FSPDFTLRNTLKSTSEDSLVKCEC [Q22C]	2.06
FSPDFTLRNTLKSTSEDSLVKIEC [Q22I]	2.06
FSPDFTLRNTLKSTSEDSLVKLEC [Q22L]	1.88
FSPDFTLRNTLKSTSEDSLVPQEC [K21P]	1.86
FSPDFTLRNTLKSTSEDSLVGQEC [K21G]	2.15
FSPDFTLRNTLKSTSEDSLVCQEC [K21C]	2.69

Variant	protein stability index
FSPDFTLRNTLKSTSEDSLVTQEC [K21T]	2.1
FSPDFTLRNTLKSTSEDSLVDQEC [K21D]	2.23
FSPDFTLRNTLKSTSEDSLVAQEC [K21A]	2.81
FSPDFTLRNTLKSTSEDSLVQQEC [K21Q]	2.33
FSPDFTLRNTLKSTSEDSLVWQEC [K21W]	2.4
FSPDFTLRNTLKSTSEDSLVLQEC [K21L]	2.04
FSPDFTLRNTLKSTSEDSLVNQEC [K21N]	2.94
FSPDFTLRNTLKSTSEDSLVIQEC [K21I]	2.21
FSPDFTLRNTLKSTSEDSLVRQEC [K21R]	3.02
FSPDFTLRNTLKSTSEDSLVEQEC [K21E]	2.52
FSPDFTLRNTLKSTSEDSLVYQEC [K21Y]	2.62
FSPDFTLRNTLKSTSEDSLVHQEC [K21H]	2.83
FSPDFTLRNTLKSTSEDSLVSQEC [K21S]	1.9
FSPDFTLRNTLKSTSEDSLVVQEC [K21V]	2
FSPDFTLRNTLKSTSEDSLVFQEC [K21F]	2.06
FSPDFTLRNTLKSTSEDSLVMQEC [K21M]	2.86
FSPDFTLRNTLKSTSEDSWVKQEC [L19W]	1.69
FSPDFTLRNTLKSTSEDSPVKQEC [L19P]	1.96
FSPDFTLRNTLKSTSEDSFVKQEC [L19F]	2.14
FSPDFTLRNTLKSTSEDSAVKQEC [L19A]	1.7
FSPDFTLRNTLKSTSEDSIVKQEC [L19I]	2.5
FSPDFTLRNTLKSTSEDSNVKQEC [L19N]	2.2
FSPDFTLRNTLKSTSEDSHVKQEC [L19H]	2.32
FSPDFTLRNTLKSTSEDSVVKQEC [L19V]	1.66
FSPDFTLRNTLKSTSEDSSVKQEC [L19S]	1.97
FSPDFTLRNTLKSTSEDSRVKQEC [L19R]	2.15

Variant	protein stability index
FSPDFTLRNTLKSTSEDSKVKQEC [L19K]	1.85
FSPDFTLRNTLKSTSEDSMVKQEC [L19M]	2.46
FSPDFTLRNTLKSTSEDSYVKQEC [L19Y]	2.24
FSPDFTLRNTLKSTSEDSTVKQEC [L19T]	2.56
FSPDFTLRNTLKSTSEDSCVKQEC [L19C]	2.15
FSPDFTLRNTLKSTSEDSQVKQEC [L19Q]	3.03
FSPDFTLRNTLKSTSEDSGVKQEC [L19G]	2
FSPDFTLRNTLKSTSEDSEVKQEC [L19E]	2.1
FSPDFTLRNTLKSTSEDSDVKQEC [L19D]	2.37
FSPDFTLRNTLKSTSEDSLVKQER [C24R]	2.34
FSPDFTLRNTLKSTSEDSLVKQEI [C24I]	1.67
FSPDFTLRNTLKSTSEDSLVKQEQ [C24Q]	2.87
FSPDFTLRNTLKSTSEDSLVKQEP [C24P]	2.75
FSPDFTLRNTLKSTSEDSLVKQEM [C24M]	2.74
FSPDFTLRNTLKSTSEDSLVKQET [C24T]	1.98
FSPDFTLRNTLKSTSEDSLVKQEV [C24V]	2.03
FSPDFTLRNTLKSTSEDSLVKQEK [C24K]	1.4
FSPDFTLRNTLKSTSEDSLVKQEY [C24Y]	3.07
FSPDFTLRNTLKSTSEDSLVKQEH [C24H]	1.85
FSPDFTLRNTLKSTSEDSLVKQEG [C24G]	2.39
FSPDFTLRNTLKSTSEDSLVKQEE [C24E]	1.69
FSPDFTLRNTLKSTSEDSLVKQES [C24S]	1.85
FSPDFTLRNTLKSTSEDSLVKQEL [C24L]	2.03
FSPDFTLRNTLKSTSEDSLVKQEW [C24W]	2.18
FSPDFTLRNTLKSTSEDSLVKQED [C24D]	2.59
FSPDFTLRNTLKSTSEDSLVKQEN [C24N]	2.16

Variant	protein stability index
FSPDFTLRNTLKSTSEDSLVKQEA [C24A]	2.03
FSPDFTLRNTLKSTSEDSLVKQEF [C24F]	2.63
FSPDFTLRNTLKSTSEDSLVKQRC [E23R]	2.42
FSPDFTLRNTLKSTSEDSLVKQIC [E23I]	1.72
FSPDFTLRNTLKSTSEDSLVKQPC [E23P]	2.04
FSPDFTLRNTLKSTSEDSLVKQDC [E23D]	1.52
FSPDFTLRNTLKSTSEDSLVKQYC [E23Y]	1.84
FSPDFTLRNTLKSTSEDSLVKQHC [E23H]	1.95
FSPDFTLRNTLKSTSEDSLVKQTC [E23T]	1.75
FSPDFTLRNTLKSTSEDSLVKQLC [E23L]	1.77
FSPDFTLRNTLKSTSEDSLVKQGC [E23G]	2.26
FSPDFTLRNTLKSTSEDSLVKQSC [E23S]	2.27
FSPDFTLRNTLKSTSEDSLVKQKC [E23K]	1.61
FSPDFTLRNTLKSTSEDSLVKQNC [E23N]	1.58
FSPDFTLRNTLKSTSEDSLVKQVC [E23V]	1.94
FSPDFTLRNTLKSTSEDSLVKQAC [E23A]	2.87
FSPDFTLRNTLKSTSEDSLVKQFC [E23F]	2.51
FSPDFTLRNTLKSTSEDSLVKQMC [E23M]	1.88
FSPDFTLRNTLKSTSEDSLVKQWC [E23W]	2.59
FSPDFTLRNTLKSTSEDSLVKQQC [E23Q]	2.3
FSPDFTLRNTLKSTSEDSLVKQCC [E23C]	2.49

Variants of: B2
Assay: as above
Conditions: c terminus: a fixed tail appended

Variant	protein stability index
ALVSWEPGRREGCDICAGKAGCPI [E2L]	3.09
ARVSWEPGRREGCDICAGKAGCPI [E2R]	1.99
AGVSWEPGRREGCDICAGKAGCPI [E2G]	3.38
ANVSWEPGRREGCDICAGKAGCPI [E2N]	3.51
AFVSWEPGRREGCDICAGKAGCPI [E2F]	1.23
ASVSWEPGRREGCDICAGKAGCPI [E2S]	2.94
ACVSWEPGRREGCDICAGKAGCPI [E2C]	2.91
AKVSWEPGRREGCDICAGKAGCPI [E2K]	1.92
AQVSWEPGRREGCDICAGKAGCPI [E2Q]	2.36
ATVSWEPGRREGCDICAGKAGCPI [E2T]	2.84
AMVSWEPGRREGCDICAGKAGCPI [E2M]	2.83
ADVSWEPGRREGCDICAGKAGCPI [E2D]	3.79
AYVSWEPGRREGCDICAGKAGCPI [E2Y]	2.68
AHVSWEPGRREGCDICAGKAGCPI [E2H]	2.02
AEISWEPGRREGCDICAGKAGCPI [V3I]	2.23
AEKSWEPGRREGCDICAGKAGCPI [V3K]	4
AEFSWEPGRREGCDICAGKAGCPI [V3F]	2.68
AEGSWEPGRREGCDICAGKAGCPI [V3G]	4
AEMSWEPGRREGCDICAGKAGCPI [V3M]	1.9

Variant	protein stability index
AEASWEPGRREGCDICAGKAGCPI [V3A]	4.16
AECSWEPGRREGCDICAGKAGCPI [V3C]	3.78
AEDSWEPGRREGCDICAGKAGCPI [V3D]	4
AEHSWEPGRREGCDICAGKAGCPI [V3H]	4.16
AEESWEPGRREGCDICAGKAGCPI [V3E]	4.58
YEVSWEPGRREGCDICAGKAGCPI [A1Y]	2.76
VEVSWEPGRREGCDICAGKAGCPI [A1V]	1.36
CEVSWEPGRREGCDICAGKAGCPI [A1C]	2.9
PEVSWEPGRREGCDICAGKAGCPI [A1P]	3.8
MEVSWEPGRREGCDICAGKAGCPI [A1M]	3.37
GEVSWEPGRREGCDICAGKAGCPI [A1G]	3.57
EEVSWEPGRREGCDICAGKAGCPI [A1E]	3.49
KEVSWEPGRREGCDICAGKAGCPI [A1K]	2.67
HEVSWEPGRREGCDICAGKAGCPI [A1H]	2.65
FEVSWEPGRREGCDICAGKAGCPI [A1F]	1.94
SEVSWEPGRREGCDICAGKAGCPI [A1S]	2.71
DEVSWEPGRREGCDICAGKAGCPI [A1D]	3.94
REVSWEPGRREGCDICAGKAGCPI [A1R]	3.51
